Patent publication US20040132073A1 (Takeda / Millennium, published 2004)
Ends that are not written are not given here.

Key:
[1] = target: human G protein-coupled receptor protein hOT7T022 (human, UniProt Q9GZQ6 1-430); assay: cell-based or functional assay
[2] = target: rat G protein-coupled receptor protein rOT7T022L (rat, UniProt Q9EP86 1-432); assay: cell-based or functional assay
Sequence of rat G protein-coupled receptor protein rOT7T022L (Q9EP86 whole entry): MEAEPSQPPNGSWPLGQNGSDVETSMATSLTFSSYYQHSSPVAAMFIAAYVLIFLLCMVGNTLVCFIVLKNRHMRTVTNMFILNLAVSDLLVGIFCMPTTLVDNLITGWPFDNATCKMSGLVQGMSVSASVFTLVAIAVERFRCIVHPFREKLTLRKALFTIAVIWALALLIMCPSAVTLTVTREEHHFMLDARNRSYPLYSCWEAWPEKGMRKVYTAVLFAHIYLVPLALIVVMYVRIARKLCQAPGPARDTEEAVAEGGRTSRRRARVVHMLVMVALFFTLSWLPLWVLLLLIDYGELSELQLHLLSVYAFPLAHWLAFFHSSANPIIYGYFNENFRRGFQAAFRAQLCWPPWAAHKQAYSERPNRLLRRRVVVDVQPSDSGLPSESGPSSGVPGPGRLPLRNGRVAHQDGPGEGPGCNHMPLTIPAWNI

Sequence of human G protein-coupled receptor protein hOT7T022 (Q9GZQ6 whole entry): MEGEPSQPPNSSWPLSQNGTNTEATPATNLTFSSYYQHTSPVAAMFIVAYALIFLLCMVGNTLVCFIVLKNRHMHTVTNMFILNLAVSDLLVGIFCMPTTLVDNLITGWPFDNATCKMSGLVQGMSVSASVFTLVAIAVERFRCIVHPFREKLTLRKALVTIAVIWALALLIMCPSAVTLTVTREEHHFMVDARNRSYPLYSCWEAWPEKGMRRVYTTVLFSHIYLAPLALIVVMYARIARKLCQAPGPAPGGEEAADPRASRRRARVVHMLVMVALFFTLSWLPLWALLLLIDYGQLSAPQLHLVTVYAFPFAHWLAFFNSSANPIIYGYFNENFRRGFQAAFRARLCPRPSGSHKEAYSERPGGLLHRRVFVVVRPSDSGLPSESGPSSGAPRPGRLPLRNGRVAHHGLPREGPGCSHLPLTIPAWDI

Binder: SVTFQELKDWGAKKDIKMSPAPANKVPHSAANLPLRF (ends and bridges not checked) [rRFRP-1-37 (peptide having the 58 (Ser) to 94 (Phe) amino acid sequence in SEQ ID NO: 50)]
- ED50, inhibition of the increased cAMP level in the cells by the forskolin treatment [1]: 30 nM

Binder: PQRF-NH2 [PQRFamide (peptide shown by Pro-Gln-Arg-Phe-NH2)]
- ED50, inhibition of the increased cAMP level in the cells by the forskolin treatment [1]: ≥ 1000 nM

Binder: SLNFEELKDWGPKNVIKMSTPAVNKMPHSFANLPLRF-NH2 [hRFRP-1-37 (peptide having the 56 (Ser) to 92 (Phe) amino acid sequence in SEQ ID NO: 1)]
- ED50, inhibition of the increased cAMP level in the cells by the forskolin treatment [1]: 21 nM

Binder: MPHSFANLPLRF-NH2 [peptide MPHSFANLPLRFamide (SEQ ID NO: 39)]
- IC50 of cAMP production suppression (forskolin-stimulated cells, cAMP EIA) [2]: 0.5 nM
- ED50, inhibition of the increased cAMP level in the cells by the forskolin treatment [1]: 4.5 nM
